The nature of this data set: amyloid nucleation score (Sup35N fusion, yeast selection) (log enrichment); library NNK3; higher = more nucleation; inactive = no reads after selection. Summed up:
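Using DiMSum, nucleation scores were taken as the log enrichment of output over input reads, centred on the mode score of non-aggregating sequences. The input and output reads came from Illumina sequencing of plasmid inserts, with sequences under 100 input reads excluded. The yeast were psi-negative, expressed Sup35N fused to peptides of 20 random codons, were induced with 100 μM copper sulfate for 24 hours, and were grown 7 days at 30°C on medium lacking adenine and uracil.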

Amyloid nucleation score data for 133 substances are collected here from the supplement of paper PMC12042874.

± gives the uncertainty stated by the source.

For the substance NSASSFCPRRLCYGRRQEDL, the amyloid nucleation score result was “inactive”.
Then EINFMKRASRVRLKQYNQ, with 0.64 ± 0.26.
Then NVISV, with “inactive”; and YFSACTVKKHTSWCADVT, with “inactive”; and TQCSNTGCCIEGNLT, with “inactive”.
Turning to ILTIEDGIIYC, the amyloid nucleation score entry is “inactive”.
RVNILFNFFCHTVW came in with an amyloid nucleation score of 1.2 ± 0.13.
As for YCVFGWIKAWPGGLVVNEFR, the amyloid nucleation score result is “inactive”.
GSRSARMGVVRRGRRCSECY: the amyloid nucleation score result was “inactive”.
For the substance IRGFVSIW, the amyloid nucleation score result is “inactive”.
The result for YVMDNNFM reads “inactive”; that for LSLSRRGYQLLLEASGRCYV, “inactive”; that for YRLLEQLTLSCWANRVLRLG, -0.077 ± 0.61.
Then FKFKERDHEWYVWFKLKHKS, with “inactive”.
The result for LVIGVYWDRSPLVSSPFPLN reads “inactive”; that for VMLNLQI, 1.18 ± 0.17.
On to CCKTFYY, for which the amyloid nucleation score result was “inactive”.
Then KYSYFFVRKTMLDCSFTEAW, with 0.771 ± 0.19.
Then SCRCR, with “inactive”; and GIAIDREKVVPIRGYLWSVT, with “inactive”; and SDSDMNKNMHMDSTHGRAMD, with “inactive”.
Then CRCDFFDSKAAPIGGGNNVL, with “inactive”; and CASLCHSSGVCRD, with “inactive”.
For MRFADFCRGYFRRGSYPLGF, the amyloid nucleation score result is “inactive”.
The result for NLFSEFGMFNGKGPVGTSVG reads “inactive”; that for VNALKRTGK, “inactive”; that for VCFDSVAMDNHDYPCVTRYM, “inactive”.
LSPARQLTLLGDKNPANNIL: the amyloid nucleation score result was “inactive”.
Turning to GNASMLWDNMSVVFLRGTLY, the amyloid nucleation score was 1.53 ± 0.074.
Regarding SCTELFTPKGR, the amyloid nucleation score entry is “inactive”.
Then VGFKSCS, with “inactive”; and IYYNHVVI, with “inactive”; and IITSLK, with 0.154 ± 0.27.
Then FGIEQTWSNECSVKTVEMRC, with “inactive”; and WYADICCCQIFRCWKLDRWS, with “inactive”.
Take WNFWNNFKSLEWEVLARYFF: the amyloid nucleation score result is “inactive”.
The result for QRLRHFAVYTMMYEAWASRC reads “inactive”; that for LAFKSDLSFNETVRKSSWLC, “inactive”.
Then DTDNWVLTDKTTGCSAVNGG, with “inactive”.
The result for FKIKKVN reads “inactive”; that for WSCASSCFY, “inactive”.
As to LEGLSKNQWGCLDATCSYTE, the amyloid nucleation score result was “inactive”.
Consider VSFLFDIW, for which the amyloid nucleation score was 2.24 ± 0.06.
The result for RKVIPCH reads “inactive”; that for RGCCKRPDGSKLVFIQMLIS, “inactive”; that for CMFSLV, “inactive”.
The result for TTMRSIPRGRRT reads “inactive”; that for RNNMKTCNVMCIFSNECHCR, 2.85 ± 0.055; that for SKPYYYMVYIESEVVVYLFG, “inactive”.
TPSGCAFNHCVMGTGDFQYM: the amyloid nucleation score was found to be 2.38 ± 0.073.
The result for EMGEGIL reads “inactive”; that for GMTDNVPLGVKVKREMCQFA, “inactive”; that for HVILICLSFYTKFICPIPEV, “inactive”.
Turning to GTFLIFDKFKLS, the amyloid nucleation score entry is “inactive”.
Then NVVFSFMVTRCDRLWS, with 0.661 ± 0.27; and YDPFYGNDQVPIQIVFLCFP, with “inactive”; and LADLLLCDLRDCRRSAVGRM, with “inactive”.
The result for NLRKKWFWAYNPSYETSPLV reads “inactive”; that for LSAATYPL, “inactive”.
As to QFFSISIFTWVYLVENVADI, the amyloid nucleation score entry is “inactive”.
The result for LLFSAKGFECLMFVNRLYLA reads “inactive”.
Then ILSLTFCVRRGEHGMASFCL, with 0.07 ± 0.46; and NDNIDPTRVIQ, with “inactive”; and YLFGRFPNGLVGRRGSGLLM, with “inactive”.
Then NRYHRIIRDAIRKDYTVCSL, with “inactive”.
For the substance FKNLGNTFGLTKRVCV, the amyloid nucleation score result is “inactive”.
For MIMINVISQCKCAGWGGNRA, the amyloid nucleation score worked out at 3.36 ± 0.053.
Then FNVKVVSKSMFYFCSYMPIV, with “inactive”; and LVHLEVGQGSSVVEHLRCVL, with “inactive”; and SISWRYATTSDVSLWIFVQT, with “inactive”.
Then TVVMIFLISYNFF, with 1.7 ± 0.1; and LNFMWRGMY, with -0.135 ± 0.62; and FNDKSMFDASKAMPFSLIAG, with “inactive”.
For GFSDLCQHYFQYLVK, the amyloid nucleation score result was “inactive”.
In turn, KGVKYMDGH yielded an amyloid nucleation score of 0.303 ± 0.2.
Then CVEVWLPYFFLSMS, with “inactive”.
Then LVNMHLSLSYGDLSRRQFVN, with “inactive”; and TVFDWLMHQMNC, with “inactive”; and FNAPVNVLFR, with -0.176 ± 0.6.
Then YGSVFSMSMTHA, with “inactive”.
Take ISDHTLAGIIFC: the amyloid nucleation score entry was “inactive”.
Then ARCVVAFIILGNYR, with 0.663 ± 0.21.
The result for WISEDTRLLHWLLQCVWIRI reads -0.531 ± 1.4.
The result for THSPKISRFLDNSRMRQFFT reads “inactive”; that for KRWEPMACPDSNRDKLKECV, “inactive”.
In the case of LNLNFKVRGL, the amyloid nucleation score stood at 0.654 ± 0.27.
The result for RFNCHRMCEHGDTLDMSYN reads “inactive”.
The result for ISLDLG reads “inactive”; that for GKNKQLS, “inactive”; that for WYGRLGWRLVRPLGRYFTRS, “inactive”.
For SFGSFMSHDEFSNVHSVGFP, the amyloid nucleation score entry was “inactive”.
The result for KILQDKKMFRGFRNGRRAGI reads “inactive”; that for AWNFNLKLKELRKTMTS, “inactive”.
As for GWTGVVFPVVSINSYQFTLF, the amyloid nucleation score was 0.757 ± 0.33.
The result for DFKILKVHKSRSSNSGSEDW reads “inactive”; that for WEPYTCIYC, “inactive”; that for VNYRN, “inactive”.
Then VCKVCFVERSCVVVVNV, with 1.8 ± 0.067; and IQYLLLLSTTARFLWKCFSL, with 0.37 ± 0.28; and FIDFGIWC, with “inactive”.
Then SFHTDTPLMRHYIMRFYNDY, with “inactive”; and MGYLMRALGHCSY, with “inactive”; and VWFNPLCYRNYGMETLVSTK, with “inactive”.
For MRSRGTLHYATDSLWSLGEP, the amyloid nucleation score entry was “inactive”.
Take GSVQAFCISKP: the amyloid nucleation score entry was “inactive”.
On to NTFDTVLFRDLVYL, for which the amyloid nucleation score entry was “inactive”.
Then SAECSVPEYVHRHKVIWHGL, with “inactive”; and FLLMCLMRCTRMETRCISAC, with “inactive”.
In the case of MLCRPTGRGLDGQCERLTVR, the amyloid nucleation score entry is “inactive”.
The result for AANVESPKIYKWCINKRGMV reads “inactive”.
Then AFSIYHRIIIMRFRKYNIFA, with “inactive”; and MLKSTKKSRGLYMVSYTFTG, with “inactive”.
For the substance IYVVACGSR, the amyloid nucleation score entry is “inactive”.
The result for ILPGL reads “inactive”; that for DYNSCCSEREVGKKEYTKNN, “inactive”; that for STWYSFDFRYFLDTIVCHMF, 1.68 ± 0.11.
Then LYLFTPVWDFNCLPFGLAYK, with “inactive”; and SSGVEAGVSRMMLQ, with “inactive”.
Then WDMWPGI, with “inactive”.
With WIWVVVHFYDLECQLDS, the amyloid nucleation score entry is “inactive”.
For the substance YHFLACCKLVGRRWWFGLQR, the amyloid nucleation score entry was “inactive”.
Then QVRVVGHFKWYRIGTKVRDI, with “inactive”; and HKDLRYGWSSS, with “inactive”.
The result for NLRHYTVDMLCSNYEYVIVY reads “inactive”.
For SKARQEL, the amyloid nucleation score result was “inactive”.
Turning to RSRNAAVDFCLPSSPWSSSV, the amyloid nucleation score result was “inactive”.
The result for YEIYQFSYPRFWKYQCNCSS reads “inactive”.
The result for TIEYLAGYFILMSQILGGDV reads “inactive”.
Then NFTRPLSWNYLR, with “inactive”.
IAHPSHGS registered an amyloid nucleation score of 0.432 ± 0.22.
Take MGVYAINVRYSAERVMLVAP: the amyloid nucleation score result was “inactive”.
The result for AGWIDAYRFYNELLLGLRDH reads “inactive”; that for HTFDDSTCSYTWVYFHIWCI, “inactive”.
